Results published in the DeepSol protein solubility set.

Test: soluble on expression in E. coli; label from the status in PepcDB or PDB records

Soluble on expression in E. coli, not soluble:
MGSDKIHHHHHHMLIDEEITLKKLETFLAFMRTGNLARAAAELGTSNVSVHRAIHSLESALRCPLFKHEGRNLTPLESAYVLEERAQKLVQEVLDTVRLTREAAGFSAERFKLGALYSLTVKTVPQLIMGLKLRRSALNIDLILGSNVDLFYQLKNMELDAILVSLNDSVSDPDCEHLPLFSDDIFLAVPVDSPYARLAEIDLSTLRDTPFVTLTQGFATHQDGTRVFQQAGFEPQIAMQVNDIFTLLSMVSSGVGHALLPKRIEAVYENRVRLIPLQPRYRLQQHIGVVFLKAKERDPNLLALLAECRMYSLRLEQEAAG
MGSDKIHHHHHHMLISSRIVRSSLVNVPLRLSRCFTQAHRACKEEEVNSPLSSAAEQPEQKYTHFGSKTVLKSTKQKLVGDVFSSVANRYDLMNDVMSLGIHRLWKDHFINKLDAGKRPNSTTPLNFIDVAGGSGDIAFGLLDHAESKFGDTESTMDIVDINPDMLKEGEKRAMEQGKYFKDPRVRFLVSNGEKLEEIDSDSKDIYTVSFGIRNFTDIQKGLNTAYRVLKPGGIFYCLEFSKIENPLMDFAYQQWAKVLPVMGSMIANDYDSYQYLVESIERFPDQETFKSMIEKAGFKSAGYESLTFGICAIHWGIKV
MGSDKIHHHHHHMLITETFHDVQTSYGTTLRIYVYSPKIAGYPQAKFPGVILYSEIYQVTGPVRRFGQRIASEGYVVVAPAIYHNFMGPEALPYDVQGTDIGNEYKIKKPLESYDEDNKLCCDLLFQLPQFDGKRIGSTGMCLGGHLAFRALLDKRVTCATCFFPTDIHSRTLGLGQNDNSLERVSKELGNNQEMVLIFGTADTHVDPQGRDLIRKTLRDHGVKFTFLEILAAQHAFIRDEFSKGRFDSAITQSCLGFLFEQFNRKLRIDLGEFVDDNTPLEHVC
MGSDKIHHHHHHMLKHADIWAAIDALARDHGLTASALARKAGLDPTTFNKSKRVTREGKPRWPSTESVAKVLEATGATMTAFVGYIEDTAQARQTANTIPLIGFAQAGDCGYFDDAGYPVGGSWDEIPFPEIGDPHAYALEVSGDSMEPLYRDGDVVIVSPAAGVRRGDRVVVRTTEGEVMVKQLVRQTAKRIELASINPAHPGRSLATEEVAWIARILWSSQ
MGSDKIHHHHHHMLKLSVCLLTCNSARLLMEVLPPLLKVADECIVVDSGSTDETVAICQQFGLTVHHHAYKAHGAQMNYAIGLASHDWVLCMDSDEILDNDVVAAIQALKAGEEPEPTCAWRLPRYWFVLGKQVRTIYPISSPDYPVRLFNRQQARFNDRPVDDQVVGHASSVRLPGFVRHDTFYSLHEVFNKLNSYTTRLVKYQQIKPSLTRGIVSAIGAFFKWYLFSGAWRYGKVGVVTGLYATFYSFLKYFKAWYAHEDNQAPVAQKRTDP
MGSDKIHHHHHHMLKLYSFGPAANSMKPLLTVFEKGLDVEKHRLDPAKFEHHTDWFKAINPRGQVPALVDGDKVVTESTVICEYLEDEYPTEVALRPADSFGKAQMRIWTKWVDEYFCWCVSTIGWHRYVGNMVKSLSDAEFEEKVKAIPVIEQQVKWRRAREGFPQDMLDEEMRKIAYSVRKLDDHLADHEWLVPGQYTLADICNFAIANGMQFGFAELVNKQDTPHLVRWIEQINERPAVKQMFAQVELEKLGPRE
MGSDKIHHHHHHMLLGSFQSVLEARNRDEFRGEVVRFAKRLGFETVSAITVVDHPVGDTEFVAIDNAPDAYKDAIEDPKAGQLDPVMQHCKRQSVPIIWDQSTYVSAGQGSMWEAQARFGFRTGICLALHMPEGRHFVIGVDRDQALPKDRGEVTRLVADLQLFAVHAQDTAMRVLVPERLQLERPKLTPRELDSLRWTMDGKTAWEVGSIMGISERTAVLHINNAMHKLACTNKHQAVLKALRLGLLR
MGSDKIHHHHHHMLLHIPNVLNAEQLRIVRERLDTAGDAWVDGRATAGYQGAPVKRNQQIAEHTPIARELGDVILASIERNPLFISSVLPNQVYPPLFNRYEGGMQFGSHVDGAVRVLPNGVKLRTDVSVTLFISDPADYDGGELVIEDTYGVQQVKLPAGDMIVYPATSLHQVTPVTRGVRVASFFWVQSLVRSDTQRAMLFDMDTAIQRLNATNADDAARRSLVGIYHNLLRTWSEP
MGSDKIHHHHHHMLLKNASFYDDEVLKRADIRLKDSLITEIKENLSPINNEEVIECRDLFVLPSFIDLSVTGLEGYENLKQKAFKGGVGLLNVFNCDQSGIKNIMAIKNNQLADIATLKNKGGEILIAPSDAFLELISHYAKSYNLPLLISLENSFEALNSGELAYELGQNFVENAFENTRLVRFMEVSRALQIPVLLDKVNSITTLKLIKAFNDLGAKLQAQTPLSHLVLDESVYEDYEPRFKIAPPLRDKESQNALKEALKNNEIAMLTSLHASKNSNAQLFEESAFGCESIEDAFSVAYTFLVQKKVISFQQLIKVMAINQAKFLKLNAGEVKENQLANLMIVDLNAQTRVSNQNSPFYGLELYGEVQRMILKGQTTFIKENACKKS
MGSDKIHHHHHHMLLSSDASAFLSPRTVQASRMKPLRIGLFTDTFLPDQNGIVTSVGLLSDELRARGHHVDVVAPFFPEQQDTRPDVRRAPSVRYIFLPTYRLAWPTRKDFEQKYDLIHTHTPLTLGLAGARLARKWDVPHVATYHTHIEAYTHYVPGLTLLQKHTRVVTRLMGLYYRRADAVITPTAAMLDVTREMGVRNPVVIPTSVKPEVLQAAPPVENPWPAGTRRLLTVGRLAREKRFDLVLDTLANLPDAHLVVLGEGPEREHLIRHAERLGVAARVSFLGVKPWTEIGAYYRLAELFLFASDTETQGLVLQEAQLMGVPVIAVGARGTLSGVAQGRSGYLVAPGDVAALTRHAQAILADGQLWRRLSEGARAFGAAWTPGGVAERVLDVYASVLGVPREIPFPEAASPRNTLAYDR
MGSDKIHHHHHHMLNKRAQILLKTLVERYISEGQPVGSRSLSKFSGLDLSAATIRNVMADLEDMGLVASPHASAGRIPTHQGYRFFVDTLLVVKPLDVIEIHQLQDQLHPDNPSRLINSASQLLAELTRFAGVVVSPKRNSAIFRYIEFMSLSEKRVLLIIVTPEGDVQNRVLFTDRNYSQSELTEAANFINHNYAGCAIDEIRTRLQSELKQLRQDMTSLMTAAIDAGDAAIRENSEAVIVAGERKLLDVQDLSSNMASLKKLFDLFERKTALLQLLEFSRKAEGVQIFIGEECGVVTMDEFSVVTAPYRVDGKMVGTVAVIGPTRMAYERVIPVVDMTARLLSSALSLH
MGSDKIHHHHHHMLQQVPTRAFHVIAKPSGSDCNLNCDYCFYLEKQSLYREKPVTHMDDDTLEAYIRHYIAASELQNEVAFTWQGGEPTLLGLEFYRRAVALQAKYGAGRKISNSFQTNGVLLDDEWCAFLAENNFLVGLSLDGPAEIHNQYRVTKGGRPTHKLVMRALTLLQKHHVDYNVLVCVNRTSAQQPLQVYDFLCDAGVEFIQFIPVVERLADETAVRDGLKLHAPGDIQGELTEWSVRPDEFGEFLVAIFDHWIKRDVGKIFVMNIEWAFANFVGAPGAVCHHQPTCGRSVIVEHNGDVYACDHYVYPQYRLGNMHQQTIAEMIDSPQQQVFGEDKFKQLPAQCRSCNVLKACWGGCPKHRFMLDASGKPGLNYLCAGYQRYFRHLPPYLKAMADLLAHGRPASDIMQAHLMVVNK
MGSDKIHHHHHHMLQQYHTKLKGTLALTDSYLTEKALQKEKGLYKFIWVRQGSITVEIDHQEMVLSKDDVISLTHLQHLEFKSIDGEYMTLLFNSNFYCIYGNDHEVSCSGFLFNGSSHLVRFTLNEEERRQLDQITEAMENEFTVSDSLQEEMLRILLKRFIIQCTRIARQRLDITREKESGFEIVRQYYNLVDEHYRTKKQVQDYADMLHKSPKTLSNIFSTCKLPSPLRVIHERVEAEAKRLLLYSNKSAKEIADILGFEDQASFSRFFKNMTGQSAVQFRNTEVGKN
MGSDKIHHHHHHMLQYRSSKMISMEIVEFKWLKFLDRYRSMAKHNLSNSGMPEPDLRSMGIDTRYESYLNEMVDLDAALRDTVARRYGVDRDNVIITNGGTEAIFLASAFISASSEVIAVPSPEYEPIFIVPESLDRRVRRVKLEKIGQAEKNSESLALSLPNNPTGKYGDIADLVRDAGRTYRYVYIDETFHDFTDDRGSSLYDGSKNLIVSNTMTKFYGLSSLRVGWIVSDKENIDAIRRIKDLTTINNARFSLFLARQAIEKWDRFRERTHSIVRKNADIARKELSDFGFYSDEYEGAPFMFVGDGRFDSEMMASKAISGYGVLVAPGSYFGLDGYLRVCLTALDAREDIAAFREFAEKELGK
